For data set [1], the target named is T1, core RNA polymerase (wild type);sigma70 (Escherichia coli;Escherichia coli, UniProt P0A7Z4;P0A8V2;P0A8T7;P00579 1-329;1-1342;1-1407;1-613, |). The data set can be described thus: KMnO4 footprinting.
In data set [2] the target is T2, core RNA polymerase (wild type) (Escherichia coli, UniProt P0A7Z4;P0A8V2;P0A8T7 1-329;1-1342;1-1407). The data set can be described thus: KMnO4 footprinting.
For data set [3], the target named is core RNA polymerase (wild type);sigma70 fragment 1-448 (Escherichia coli;Escherichia coli, UniProt P0A7Z4;P0A8V2;P0A8T7;P00579 1-329;1-1342;1-1407;1-448, |). Kind of data set: ExoIII footprinting.
For data set [4], the target named is T2, core RNA polymerase (wild type). The data set can be described thus: ExoIII footprinting.
Data set [5] addresses T1, core RNA polymerase (wild type);sigma70. The data set can be described thus: ExoIII footprinting.

T2 sequence (P0A7Z4 whole entry, chain 1 of 2, the tested form may be a part): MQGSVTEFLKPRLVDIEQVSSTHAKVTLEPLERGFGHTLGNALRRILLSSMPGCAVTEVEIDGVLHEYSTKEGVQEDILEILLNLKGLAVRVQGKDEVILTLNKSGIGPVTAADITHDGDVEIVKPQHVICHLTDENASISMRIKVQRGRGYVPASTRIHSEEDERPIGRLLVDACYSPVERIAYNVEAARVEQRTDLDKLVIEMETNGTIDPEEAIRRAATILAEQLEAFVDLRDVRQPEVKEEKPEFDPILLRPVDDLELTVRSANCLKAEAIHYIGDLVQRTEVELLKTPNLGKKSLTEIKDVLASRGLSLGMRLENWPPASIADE
T2 sequence (P0A8V2 whole entry, chain 2 of 2, the tested form may be a part): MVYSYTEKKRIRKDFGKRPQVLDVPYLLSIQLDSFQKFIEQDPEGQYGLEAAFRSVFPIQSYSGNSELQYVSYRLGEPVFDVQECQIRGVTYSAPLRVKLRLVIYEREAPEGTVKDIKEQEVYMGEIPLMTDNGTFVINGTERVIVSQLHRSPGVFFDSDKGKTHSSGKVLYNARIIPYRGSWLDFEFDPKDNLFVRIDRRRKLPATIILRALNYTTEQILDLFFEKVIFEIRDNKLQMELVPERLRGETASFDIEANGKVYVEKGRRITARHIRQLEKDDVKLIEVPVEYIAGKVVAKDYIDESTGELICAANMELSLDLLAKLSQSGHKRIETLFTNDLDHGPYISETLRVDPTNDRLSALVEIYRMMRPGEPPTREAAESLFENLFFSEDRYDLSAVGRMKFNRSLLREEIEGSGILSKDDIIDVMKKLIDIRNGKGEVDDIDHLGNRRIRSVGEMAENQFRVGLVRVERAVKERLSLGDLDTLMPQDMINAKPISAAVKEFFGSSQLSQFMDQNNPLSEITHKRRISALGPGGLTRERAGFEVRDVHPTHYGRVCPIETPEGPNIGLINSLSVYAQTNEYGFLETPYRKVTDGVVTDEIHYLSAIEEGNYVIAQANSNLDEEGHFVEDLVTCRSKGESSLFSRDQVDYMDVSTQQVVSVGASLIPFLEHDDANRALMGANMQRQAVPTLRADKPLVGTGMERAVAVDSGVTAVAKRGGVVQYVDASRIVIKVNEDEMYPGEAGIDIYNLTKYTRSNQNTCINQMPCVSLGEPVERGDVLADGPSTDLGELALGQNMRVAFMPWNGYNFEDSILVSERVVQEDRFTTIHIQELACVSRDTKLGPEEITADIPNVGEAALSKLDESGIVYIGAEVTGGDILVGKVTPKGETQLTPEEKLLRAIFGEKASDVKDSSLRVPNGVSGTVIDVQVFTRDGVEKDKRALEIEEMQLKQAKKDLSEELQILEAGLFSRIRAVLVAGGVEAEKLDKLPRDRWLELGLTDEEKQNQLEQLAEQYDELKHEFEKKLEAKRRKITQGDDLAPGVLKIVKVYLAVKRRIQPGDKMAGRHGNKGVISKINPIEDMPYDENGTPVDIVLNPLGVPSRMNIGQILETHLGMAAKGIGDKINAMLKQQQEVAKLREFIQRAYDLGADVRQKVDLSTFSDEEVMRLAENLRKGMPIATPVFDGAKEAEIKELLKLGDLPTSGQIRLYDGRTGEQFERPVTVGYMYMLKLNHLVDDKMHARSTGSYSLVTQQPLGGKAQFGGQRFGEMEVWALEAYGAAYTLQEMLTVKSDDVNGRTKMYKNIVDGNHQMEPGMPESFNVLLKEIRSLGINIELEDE
T1 sequence (P0A7Z4 whole entry, chain 1 of 3): as the sequence (P0A7Z4 whole entry, chain 1 of 2, the tested form may be a part) above
T1 sequence (P0A8V2 whole entry, chain 2 of 3): as the sequence (P0A8V2 whole entry, chain 2 of 2, the tested form may be a part) above
T1 sequence (P00579 whole entry, chain 4 of 3): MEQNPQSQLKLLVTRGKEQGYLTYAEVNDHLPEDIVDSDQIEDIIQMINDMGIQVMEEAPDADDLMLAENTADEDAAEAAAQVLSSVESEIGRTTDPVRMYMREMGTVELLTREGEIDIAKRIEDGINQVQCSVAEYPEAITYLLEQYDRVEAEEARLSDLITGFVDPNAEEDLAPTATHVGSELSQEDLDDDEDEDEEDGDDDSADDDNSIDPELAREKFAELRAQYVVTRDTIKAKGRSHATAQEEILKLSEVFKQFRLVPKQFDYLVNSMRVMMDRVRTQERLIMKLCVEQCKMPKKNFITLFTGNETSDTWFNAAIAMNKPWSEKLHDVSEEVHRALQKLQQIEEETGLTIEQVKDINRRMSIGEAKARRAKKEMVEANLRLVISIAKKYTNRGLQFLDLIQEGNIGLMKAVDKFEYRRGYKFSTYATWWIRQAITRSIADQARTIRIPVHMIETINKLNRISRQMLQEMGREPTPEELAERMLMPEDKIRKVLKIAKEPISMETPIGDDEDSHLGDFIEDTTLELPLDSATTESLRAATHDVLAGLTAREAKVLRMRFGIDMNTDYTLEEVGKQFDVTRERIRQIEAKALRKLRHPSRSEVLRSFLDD

B1: Cons scaffold, 20-mer RNA (mixed)
DNA 1: AGGATACTTAGTGCTATAATGAGCGGATCGCATGTTCACACAGGAAACAGCTGATTGCCC
DNA 2: GGGCAATCAGCTGTTTCCTGTGTGAACATGCGATCCGCTCATTATAGCACTAAGTATCCT
RNA: AUCACGAUAAAUGAGCGGAU
For the molecule B1, the binding result in data set [1] and in data set [2] was “binds” each time.

B2: Cons_up scaffold, 20-mer RNA (mixed)
DNA 1: CAGTGAATTCAGGATACTTAGTGCTATAATGAGCGGATCGCATGTTCACACAGGAAACAGCTGATTGCCC
DNA 2: GGGCAATCAGCTGTTTCCTGTGTGAACATGCGATCCGCTCATTATAGCACTAAGTATCCTGAATTCACTG
RNA: AUCACGAUAAAUGAGCGGAU
For B2, the binding result in data set [3], in data set [4] and in data set [5] was “binds” in each case.
